# B1: ETNF-6 antibody (antibody, V domains shown)
# VH: EVQLQQSGPELVKPGASVKISCKASGYSFTAFYMHWVKQSHVKSLEWIGRINPYNGATSYNQNFKAKASLTVDKSSSTAYMELHSLTSEDSAVYYCARSEDWDKTMDYWGQGTSVTVS
# VL: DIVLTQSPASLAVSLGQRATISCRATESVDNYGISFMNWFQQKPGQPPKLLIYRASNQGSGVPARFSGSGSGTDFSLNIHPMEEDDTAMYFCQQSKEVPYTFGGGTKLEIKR
# notes: Mouse monoclonal antibody, tested as hybridoma culture supernatant; also called ETNF 6 monoclonal antibody
# Target: T1, Recombinant Human TNF-α (Strathmann Biotec AG, hTNFa-1000, Lot 090590) (human, UniProt P01375 77-233)
# T1 construct: Bought protein; runs at 17.0 kDa on SDS-PAGE; also called cachectin
# T1 sequence (P01375 77-233 limits assumed): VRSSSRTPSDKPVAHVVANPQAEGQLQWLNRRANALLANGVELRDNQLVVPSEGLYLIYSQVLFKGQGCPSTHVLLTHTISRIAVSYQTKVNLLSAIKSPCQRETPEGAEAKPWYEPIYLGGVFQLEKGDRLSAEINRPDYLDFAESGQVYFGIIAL
# Assay: ELISA, hybridoma culture supernatant on coated proteins (cross-reactivity test)
binder,measurement,value
B1,binding result,binds
